Reference: PMC8286825 (Biochemical Journal, 2021)
Read-outs that look alike come from different tables or passages of the source.

Columns and labels:
Experiment in all cases: AUC
AUC = target: the molecule itself
A6NHR9 [1] = target: A6NHR9
A6NHR9 [2] = target: A6NHR9; remark: listed apart in the source
A6NHR9 [3] = target: A6NHR9; remark: listed apart in the source
A6NHR9 [4] = target: A6NHR9; remark: listed apart in the source
A6NHR9 [5] = target: A6NHR9; remark: listed apart in the source

B1: UBL-containing SMCHD1 ATPase (residues 25–702) (domain or fragment, human, UniProt A6NHR9 25-702, looked up)
chain: HRTVYLFDRREKESELGDRPLQVGERSDYAGFRACVCQTLGISPEEKFVITTTSRKEITCDNFDETVKDGVTLYLLQSVNQLLLTATKERIDFLPHYDTLVKSGMYEYYASEGQNPLPFALAELIDNSLSATSRNIGVRRIQIKLLFDETQGKPAVAVIDNGRGMTSKQLNNWAVYRLSKFTRQGDFESDHSGYVRPVPVPRSLNSDISYFGVGGKQAVFFVGQSARMISKPADSQDVHELVLSKEDFEKKEKNKEAIYSGYIRNRKPSDSVHITNDDERFLHHLIIEEKEKDSFTAVVITGVQPEHIQYLKNYFHLWTRQLAHIYHYYIHGPKGNEIRTSKEVEPFNNIDIEISMFEKGKVPKIVNLREIQDDMQTLYVNTAADSFEFKAHVEGDGVVEGIIRYHPFLYDRETYPDDPCFPSKLKDEDDEDDCFILEKAARGKRPIFECFWNGRLIPYTSVEDFDWCTPPKKRGLAPIECYNRISGALFTNDKFQVSTNKLTFMDLELKLKDKNTLFTRILNGQEQRMKIDREFALWLKDCHEKYDKQIKFTLFKGVITRPDLPSKKQGPWATYAAIEWDGKIYKAGQLVKTIKTLPLFYGSIVRFFLYGDHDGEVYATGGEVQIAMEPQALYDEVRTVPIAKLDRTVAEKAVKKYVEDEMARLPDRLSVTWPEGDE
- stoichiometry N (AUC): 2
- Monomer (%) (A6NHR9 [1]): 53.4%
- Monomer (%) (A6NHR9 [2]): 57.6%
- Monomer (%) (A6NHR9 [3]): 76.8%
- Monomer (%) (A6NHR9 [4]): 61.5%
- Monomer (%) (A6NHR9 [5]): 88.2%
